We go through 12 molecules from US20220324939A1 (Regeneron, published 2022).

The target in assay [1] is T1, MAGE-A4 peptide on HLA-A*02:01 (human).
T1 peptide: GVYDGREHTV
The assay can be described thus: multimer staining.

Assay [2] has as its target T2, soluble HLA-A2 MAGE-A4 (…) tetramer (human).
T2 construct: Bought tetramer reagent; also called MAGE-A4/HLA tetramer reagent; HLA-A02:01 MAGE-A4 tetramer
The assay can be described thus: flow cytometry tetramer staining; % with MAGE-A4 tetramer divided by % with MAGE-A8 tetramer (reference).
Description: (§1) Samples were then analyzed on an LSRFortessa X-20 (BD Biosciences, San Jose, Calif.). […] However, a more stringent cutoff, such as 3%, could be used to separate out Ag+ TCRs that behave better in the binding assay. Ag+ TCRs were determined by Next Generation Sequencing.

The target of assay [3] is T2, soluble HLA-A2 MAGE-A4 (…) tetramer. The assay can be described thus: flow cytometry, HLA-A2 MAGE-A4 (…) tetramer staining of CHO cells transfected with the TCR.
Description: as §1
In assay [4] the target is T3, MAGE-A8 peptide on HLA-A*02:01 (human).
T3 peptide: GLYDGREHSV
Description: multimer staining.

The target in assay [5] is T4, soluble HLA-A2 MAGE-A8 (…) tetramer (human).
T4 construct: Bought tetramer reagent; also called MAGE-A8/HLA tetramer reagent; HLA-A02:01 MAGE-A8 tetramer
The assay can be described thus: flow cytometry, HLA-A2 MAGE-A8 (…) tetramer staining of CHO cells transfected with the TCR.
Description: as §1

B1: PN45593 (TCR, V domains shown)
V domain 1: AQKITQTQPGMFVQEKEAVTLDCTYDTSDPSYGLFWYKQPSSGEMIFLIYQGSYDQQNATEGRYSLNFQKARKSANLVISASQLGDSAMYFCAMREGPGNNARLMFGDGTQLVVKP
V domain 2: NAGVTQTPKFRVLKTGQSMTLLCAQDMNHEYMYWYRQDPGMGLRLIHYSVGEGTTAKGEVPDGYNVSRLKKQNFLLGLESAAPSQTSVYFCASSYWDRGSPLHFGNGTRLTVT
notes: stained with anti-mouse TCR constant region H57-597; full-length chains on transfected CHO cells; also called TCR No. 40
B1: in assay [1], the binding result was “recognises”. For the same molecule, the “MAGE-A4/MAGE-A8 (ratio of % tetramer in Ag+ gate)” value in assay [2] came out at 991. In addition, the “% tetramer in Ag+ gate (MAGE-A4)” value in assay [3] worked out at 56.5%.

B2: PN45581 (TCR, V domains shown)
V domain 1: AQKITQTQPGMFVQEKEAVTLDCTYDTSDPSYGLFWYKQPSSGEMIFLIYQGSYDQQNATEGRYSLNFQKARKSANLVISASQLGDSAMYFCAMREGPGNNARLMFGDGTQLVVKP
V domain 2: EAQVTQTPRYLITVTGKKLTVTCSQNMNHEYMSWYRQDPGLGLRQIYYSMNVEVTDKGDVPEGYKVSRKEKRNFPLILESPSPNQTSLYFCASSLWTGGGYTFGSGTRLTVV
notes: stained with anti-mouse TCR constant region H57-597; full-length chains on transfected CHO cells; also called TCR No. 44
In the case of B2, the binding result in assay [1] is “recognises”. For the same molecule, in assay [2], the “MAGE-A4/MAGE-A8 (ratio of % tetramer in Ag+ gate)” value was determined as 18.7. Further, the “% tetramer in Ag+ gate (MAGE-A4)” value in assay [3] amounted to 3.18%.

B3: PN45584 (TCR, V domains shown)
V domain 1: AQKITQTQPGMFVQEKEAVTLDCTYDTSDPSYGLFWYKQPSSGEMIFLIYQGSYDEQNATEGRYSLNFQKARKSANLVISASQLGDSAMYFCAMREGPGSGNTGKLIFGQGTTLQVKP
V domain 2: NAGVTQTPKFRILKIGQSMTLQCAQDMNHNYMYWYRQDPGMGLKLIYYSVGAGITDKGEVPNGYNVSRSTTEYFPLRLELAAPSQTSVYFCASSYSEWQNYGYTFGSGTRLTVV
notes: stained with anti-mouse TCR constant region H57-597; full-length chains on transfected CHO cells; also called TCR No. 43
For the molecule B3, the binding result in assay [1] is “recognises”. Moreover, in assay [3], the “% tetramer in Ag+ gate (MAGE-A4)” value came out at 69.1%.

B4: PN45557 (TCR, V domains shown)
V domain 1: AQKITQTQPGMFVQEKEAVTLDCTYDTSDPSYGLFWYKQPSSGEMIFLIYQGSYDQQNATEGRYSLNFQKARKSANLVISASQLGDSAMYFCAMREGPGSGNTGKLIFGQGTTLQVKP
V domain 2: NAGVTQTPKFRILKIGQSMTLQCAQDMNHNYMYWYRQDPGMGLKLIYYSVGAGITDKGEVPNGYNVSRSTTEYFPLRLELAAPSQTSVYFCASSYSEWQNYGYTFGSGTRLTVV
notes: full-length chains on transfected CHO cells; also called TCR No. 52
With B4, the binding result in assay [1] and in assay [4] was “recognises” each time. Moreover, in assay [5], the “% tetramer in Ag+ gate (MAGE-A8)” value stood at 66.3%. In assay [2], the “MAGE-A4/MAGE-A8 (ratio of % tetramer in Ag+ gate)” value amounted to 1.43. Further, in assay [3], the “% tetramer in Ag+ gate (MAGE-A4)” value is 94.7%.

B5: PN45418 (TCR, V domains shown)
V domain 1: EDQVTQSPEALRLQEGESSSLNCSYTVSGLRGLFWYRQDPGKGPEFLFTLYSAGEEKEKERLKATLTKKESFLHITAPKPEDSATYLCAVQPSYSGAGSYQLTFGKGTKLSVIP
V domain 2: EAQVTQNPRYLITVTGKKLTVTCSQNMNHEYMSWYRQDPGLGLRQIYYSMNVEVTDKGDVPEGYKVSRKEKRNFPLILESPSPNQTSLYFCASSPGTGGFSPLHFGNGTRLTVT
notes: stained with anti-mouse TCR constant region H57-597; full-length chains on transfected CHO cells; also called TCR No. 46
Take B5: the binding result in assay [1] is recorded as “recognises”. In addition, in assay [5], the “% tetramer in Ag+ gate (MAGE-A8)” value is 1.24%. In addition, in assay [2], the “MAGE-A4/MAGE-A8 (ratio of % tetramer in Ag+ gate)” value was 9.92. The “% tetramer in Ag+ gate (MAGE-A4)” value in assay [3] worked out at 12.3%.

B6: PN45460 (TCR, V domains shown)
V domain 1: GNSVTQMEGPVTLSEEAFLTINCTYTATGYPSLFWYVQYPGEGLQLLLKATKADDKGSNKGFEATYRKETTSFHLEKGSVQVSDSAVYFCALSDTRDDKIIFGKGTRLHILP
V domain 2: EAQVTQSPRYLITVTGKKLTVTCSQNMNHEYMSWYRQDPGLGLRQIYYSMNVEVTDKGDVPEGYKVSRKEKRNFPLILESPSPNQTSLYFCASSPGTGGFSPLHFGNGTRLTVT
notes: full-length chains on transfected CHO cells; also called TCR No. 49
In the case of B6, the binding result in assay [1] and in assay [4] was “recognises” each time. The “% tetramer in Ag+ gate (MAGE-A8)” value in assay [5] was found to be 16.7%. In assay [2], the “MAGE-A4/MAGE-A8 (ratio of % tetramer in Ag+ gate)” value was found to be 2.08. Moreover, the “% tetramer in Ag+ gate (MAGE-A4)” value in assay [3] was determined as 34.7%.

B7: PN45515 (TCR, V domains shown)
V domain 1: DAKTTQPPSMDCAEGRAANLPCNHSTISGNEYVYWYRQIHSQGPQYIIHGLKNNETNEMASLIITEDRKSSTLILPHATLRDTAVYYCIVRPYNAGNNRKLIWGLGTSLAVNP
V domain 2: DVKVTQSSRYLVKRTGEKVFLECVQDMDHENMFWYRQDPGLGLRLIYFSYDVKMKEKGDIPEGYSVSREKKERFSLILESASTNQTSMYLCASSFGGGYYGYTFGSGTRLTVV
notes: stained with anti-mouse TCR constant region H57-597; full-length chains on transfected CHO cells; also called TCR No. 39
For the molecule B7, the binding result in assay [1] is on record as “recognises”; in assay [4], “no recognition”. Further, the “MAGE-A4/MAGE-A8 (ratio of % tetramer in Ag+ gate)” value in assay [2] came out at 1150. Further, the “% tetramer in Ag+ gate (MAGE-A4)” value in assay [3] stood at 11.5%.

B8: PN45494 (TCR, V domains shown)
V domain 1: GNSVTQIEGPVTLSEEAFLTINCTYTATGYPSLFWYVQYPGEGLQLLLKATKADDKGSNKGFEATYRKETTSFHLEKGSVQVSDSAVYFCALSDTRDDKTIFGKGTRLHILP
V domain 2: DVKVTQSSRYLVKRTGEKVFLECVQDMDHENMFWYRQDPGLGLRLIYFSYDVKMKEKGDIPEGYSVSREKKERFSLILESASTNQTSMYLCASSLQGRYYGYTFGSGTRLTVV
notes: full-length chains on transfected CHO cells; also called TCR No. 50
As for B8, the binding result in assay [1] and in assay [4] was “recognises” throughout. In addition, the “% tetramer in Ag+ gate (MAGE-A8)” value in assay [5] worked out at 1.88%. Also, in assay [2], the “MAGE-A4/MAGE-A8 (ratio of % tetramer in Ag+ gate)” value worked out at 1.97. In assay [3], the “% tetramer in Ag+ gate (MAGE-A4)” value was 3.7%.

B9: PN45489 (TCR, V domains shown)
V domain 1: TQLLEQSPQFLSIQEGENLTVYCNSSSVFSSLQWYRQEPGEGPVLLVTVVTGGEVKKLKRLTFQFGDARKDSSLHITAAQPGDTGLYLCAEDGGSQGNLIFGKGTKLSVKP
V domain 2: DVKVTQTSRYLVKRTGEKVFLECVQDMDHENMFWYRQDPGLGLRLIYFSYDVKMKEKGDIPEGYSVSREKKERFSLILESASTNQTSMYLCASSLQGRYYGYTFGSGTRLTVV
notes: stained with anti-mouse TCR constant region H57-597; full-length chains on transfected CHO cells; also called TCR No. 48
Consider B9, for which the binding result in assay [1] and in assay [4] was “recognises” throughout. In addition, in assay [5], the “% tetramer in Ag+ gate (MAGE-A8)” value came out at 6.39%. Also, the “MAGE-A4/MAGE-A8 (ratio of % tetramer in Ag+ gate)” value in assay [2] stood at 2.5. In addition, the “% tetramer in Ag+ gate (MAGE-A4)” value in assay [3] worked out at 16%.

B10: PN45481 (TCR, V domains shown)
V domain 1: GNSVTQMEGPVTLSEEAFLTINCTYTATGYPSLFWYVQYPGEGLQLLLKATKADDKGSNKGFEATYRKETTSFHLEKGSVQVSDSAVYFCALSDTRDDKIIFGKGTRLHILP
V domain 2: DVKVTQSSRYLVKRTGEKVFLECVQDMDHENMFWYRQDPGLGLRLIYFSYDVKMKEKGDIPEGYSVSREKKERFSLILESASTNQTSMYLCASSLQGRYYGYTFGSGTRLTVV
notes: full-length chains on transfected CHO cells; also called TCR No. 54
In the case of B10, the binding result in assay [1] and in assay [4] was “recognises” each time. The “% tetramer in Ag+ gate (MAGE-A8)” value in assay [5] was found to be 72.9%. For the same molecule, the “MAGE-A4/MAGE-A8 (ratio of % tetramer in Ag+ gate)” value in assay [2] amounted to 1.21. Besides, in assay [3], the “% tetramer in Ag+ gate (MAGE-A4)” value is 87.9%.

B11: PN45539 (TCR, V domains shown)
V domain 1: DAKTTQPPSMDCAEGRAANLPCNHSTISGNEYVYWYRQIHSQGPQYIIHGLKNNETNEMASLIITEDRKSSTLILPHATLRDTAVYYCIVRPYNAGNNRKLIWGLGTSLAVNP
V domain 2: DVKVTQSSRYLVKRTGEKVFLECVQDMDHENMFWYRQDPGLGLRLIYFSYDVKMKEKGDIPEGYSVSREKKERFSLILESASTNQTSMYLCASSFEGGYYGYTFGSGTRLTVV
notes: stained with anti-mouse TCR constant region H57-597; full-length chains on transfected CHO cells; also called TCR No. 41
With B11, the binding result in assay [1] is given as “recognises”. The “MAGE-A4/MAGE-A8 (ratio of % tetramer in Ag+ gate)” value in assay [2] was determined as 498. The “% tetramer in Ag+ gate (MAGE-A4)” value in assay [3] was 59.8%.

B12: PN45546 (TCR, V domains shown)
V domain 1: AQTVTQSQPEMSVQEAETVTLSCTYDTSESDYYLFWYKQPPSRQMILVIRQEAYKQQNATENRFSVNFQKAAKSFSLKISDSQLGDAAMYFCAYRSGAGGTSYGKLTFGQGTILTVHP
V domain 2: DAGVTQSPTHLIKTRGQQVTLRCSPISGHKSVSWYQQVLGQGPQFIFQYYEKEERGRGNFPDRFSARQFPNYSSELNVNALLLGDSALYLCASSIRDTYGYTFGSGTRLTVV
notes: full-length chains on transfected CHO cells; also called TCR No. 53
Take B12: the binding result in assay [1] and in assay [4] was “recognises” each time. For the same molecule, the “% tetramer in Ag+ gate (MAGE-A8)” value in assay [5] came out at 60.6%. Also, in assay [2], the “MAGE-A4/MAGE-A8 (ratio of % tetramer in Ag+ gate)” value stood at 1.23. For the same molecule, the “% tetramer in Ag+ gate (MAGE-A4)” value in assay [3] amounted to 74.8%.
